# “And” between values parts separate entries of the source, which are not always exact repeats. Equal entries are not always repeated.
# T1: tau peptide 234-250, N-acetyl-KSPSSAKSRLQTAPVPM-amide (human)
# T1 peptide: Ac-KSPSSAKSRLQTAPVPM-NH2
# Legend:
# [1] = molecular target: T2, Tau from human Alzheimer's disease brain (isolated Tau PHF fibrils from Alzheimer's disease patients) (human, UniProt P10636-8 2-441, limits assumed); assay: cell-based or functional assay
# [2] = molecular target: T1, tau peptide 234-250, …; assay: X-ray crystallography of the Fab/peptide co-complex
# Source text: We collected the x-ray diffraction data through a single L14H18 Fab/tau peptide 234-250 crystal. The crystal was suspended in a litho loop and flash frozen under liquid nitrogen, after briefly passing through a cryoprotectant solution containing 30% polyethylene glycol 4000, 0.2M calcium chloride, 0.1M HEPES buffer pH 7.5 and 10% ethylene glycol. The diffraction data was collected on a Pilatis 6M at the 104-1 beamline station at the Diamond synchrotron, Didcot, Oxfordshire, UK. The wavelength of the monochromatic x-ray beam was 0.92819A. The reciprocal space was sampled at 0.2° oscillation steps around the φ goniostat axis. The processed data XIA file provided from the synchrotron facility was used for structure determination
# For model building the computer program Coot (Emsley P., Lohkamp B., Scott W. G., Cowton K. Acta Crystallography D Biol Crystallography, 2010 April; 66 (Pt 4): 486-501) was used. Refinement was carried out using the program REFMAC (Murshudov G. N., Skubak P., Lebedev A. A., Pannu N. S., Steiner R. A., Nicholls R. A., Winn M. D., Long F., Vagin A. A. Acta Crystallogr D Biol Crystallogr 2011 April; 67 (Pt 4): 355-67).
# The interaction between antibody L14H18 and tau peptide, N-acetyl-[…]-amide (based on human tau isoform 2 sequence 234 to 250), was studied by x-ray crystallography using a co-complex prepared from L14H18 Fab fragment incubated with the peptide. […]
# [3] = molecular target: Tau from human progressive supranuclear palsy brain (human, UniProt P10636-8 2-441, limits assumed); assay: cell-based or functional assay
# [4] = molecular target: Tau from human frontotemporal dementia brain (human, UniProt P10636-8 2-441, limits assumed); assay: cell-based or functional assay
# [5] = molecular target: human Tau P301L from brain of P301L Tau transgenic mice (human, UniProt P10636-8 2-441, limits assumed); assay: cell-based or functional assay
# [6] = molecular target: T3, monomeric Tau isoform-2 expressed in E. coli (human, UniProt P10636 2-758); assay: SPR, Biacore T200, Tau amine-immobilised, mFab as analyte
# T3 construct: also called Ecoli iso-2; E. coli Tau
# Method: (§1) Absorption at 280 nm was used to determine the concentration of the Fab stock solutions for the BIAcore analysis. An insoluble Tau protein preparation from Alzheimer's disease patients (AD-PHF, fraction 11), the HEK-derived Tau isoform-2 monomers (amino acids 1-441), and the isoform-2 monomers expressed in E. coli were amine immobilized onto the CMS chip, and binding of anti-Tau mFabs was measured with the Biacore T200 instrument. The buffer HBS-EP from GE Healthcare was used for immobilizations apart from the AD-PHF for which 10 mM acetic acid (pH3.0) was used. The HBS-EP+buffer was supplemented with 300 mM NaCl and 1.25% CM-Dextran (Sigma) and used as the assay buffer. While flow cell (Fc) 1 was used as a reference, the following RU values were obtained for Fc2-4: 44 RU with 5 μg/ml E. coli Tau, 56 RU with 5 μg/m HEK Tau, and 500 RU with a 1:20 diluted solution of the AD-PHF material. Two 60 s cycles of 10 mM Glycine (pH1.7) were used for regeneration. Flow rates of 10 μl/min were used for immobilization and regeneration while a 30 μl/min flow rate was used for analyte binding. For AD-PHF, multiple manual injections were applied to reach 500 RU, including EDC/NHS and EtoA capping. Five start-up cycles and 12 cycles per mFab sample or buffer control were applied, using 90 μl analyte injections for either 180 s or 300 s for dissociation. 11 1:3 dilutions of a 600 nM solution plus buffer were used for each mFab. AB1 was analyzed using the BIAcore test.
# [7] = molecular target: T4, monomeric Tau isoform-2 derived from mammalian HEK293 cells (human, UniProt P10636 2-758); assay: as above
# T4 construct: also called HEK iso-2; HEK Tau
# Method: as §1
# [8] = molecular target: T2, Tau from human Alzheimer's disease …; assay: SPR, Biacore T200, AD-PHF fraction 11 amine-immobilised, mFab as analyte
# Method: as §1
# T4 sequence (P10636 other isoform, or with tags, fused parts or gaps limits assumed): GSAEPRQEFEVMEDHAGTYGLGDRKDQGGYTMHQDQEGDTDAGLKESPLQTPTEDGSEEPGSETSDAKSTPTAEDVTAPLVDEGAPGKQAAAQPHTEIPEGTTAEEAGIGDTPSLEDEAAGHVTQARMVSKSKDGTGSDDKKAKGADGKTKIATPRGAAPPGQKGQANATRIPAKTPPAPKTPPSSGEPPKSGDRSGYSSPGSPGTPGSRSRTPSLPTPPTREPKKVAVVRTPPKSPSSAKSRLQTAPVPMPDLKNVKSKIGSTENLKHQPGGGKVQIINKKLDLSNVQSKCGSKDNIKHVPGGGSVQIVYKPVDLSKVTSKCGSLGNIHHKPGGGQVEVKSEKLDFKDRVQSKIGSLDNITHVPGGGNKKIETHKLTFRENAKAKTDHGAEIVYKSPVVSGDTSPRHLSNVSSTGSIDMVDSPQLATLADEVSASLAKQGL
# T2 sequence (P10636 other isoform, or with tags, fused parts or gaps limits assumed): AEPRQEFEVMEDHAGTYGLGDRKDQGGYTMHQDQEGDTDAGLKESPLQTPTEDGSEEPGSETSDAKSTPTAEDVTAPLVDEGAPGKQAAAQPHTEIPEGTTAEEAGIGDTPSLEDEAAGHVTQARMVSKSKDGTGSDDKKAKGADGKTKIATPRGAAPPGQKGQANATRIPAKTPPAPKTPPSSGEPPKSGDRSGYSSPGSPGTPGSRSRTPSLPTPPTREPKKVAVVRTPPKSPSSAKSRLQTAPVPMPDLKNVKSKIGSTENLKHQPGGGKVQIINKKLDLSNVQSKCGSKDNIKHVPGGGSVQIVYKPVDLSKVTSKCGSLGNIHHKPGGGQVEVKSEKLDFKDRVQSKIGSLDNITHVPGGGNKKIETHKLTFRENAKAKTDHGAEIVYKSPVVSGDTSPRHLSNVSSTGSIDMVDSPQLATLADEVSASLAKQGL
# Sequence of human Tau P301L from brain of P301L Tau transgenic mice (P10636 other isoform, or with tags, fused parts or gaps P301L P301L P301L P301L limits assumed): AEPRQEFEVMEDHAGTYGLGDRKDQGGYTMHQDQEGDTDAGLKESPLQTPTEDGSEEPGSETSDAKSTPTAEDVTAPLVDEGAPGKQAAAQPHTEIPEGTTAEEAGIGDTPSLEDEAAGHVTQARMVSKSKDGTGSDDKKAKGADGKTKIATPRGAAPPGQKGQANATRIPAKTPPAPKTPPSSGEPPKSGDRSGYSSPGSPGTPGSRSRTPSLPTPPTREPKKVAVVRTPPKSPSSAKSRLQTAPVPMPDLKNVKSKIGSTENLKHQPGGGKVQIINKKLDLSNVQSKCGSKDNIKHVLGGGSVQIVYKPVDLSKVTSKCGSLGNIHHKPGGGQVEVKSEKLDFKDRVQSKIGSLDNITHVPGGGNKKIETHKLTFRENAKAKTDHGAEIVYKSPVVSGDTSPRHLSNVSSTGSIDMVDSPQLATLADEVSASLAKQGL
binder,measurement,setting,value
"Tau-binding antibody having the light chain of SEQ ID No.: 14 and the heavy chain of SEQ ID No.:17 (antibody, human IgG4 S228P, kappa, V domains shown) VH: EVQLQESGPGLVKPSETLSLTCTVSGFSLTSNDIAWIRQPPGKGLEWMGTIWTDGSTNYNAAVQSRVTISVDTSKNQFSLKLSSVTAADTAVYYCARHRLYYGAFDYWGQGTMVTVSS VL: DIVMTQTPLSLSVTPGQPASISCRSSQSLEYSDGYTYLEWYLQKPGQSPQLLIYEVSNRFSGVPDRFSGSGSGTDFTLKISRVEAEDVGVYYCFQATHNPYTFGQGTKLEIKR",IC50 (cellular Tau aggregation assay),[1],11 nM
same,"Imax (maximal efficacy at 300 nM, cellular Tau aggregation assay)",[1],98%
"L14H18 Fab (Fab, V domains shown, also called L14H18 Fab fragment; L14H18 Fab protein) VH: EVQLQESGPGLVKPSETLSLTCTVSGFSLTSNDIAWIRQPPGKGLEWMGTIWTDGSTNYNTAVQSRVTISVDTSKNQFSLKLSSVTAADTAVYYCARHRLYYGAFDYWGQGTMVTVSS VL: DIVMTQTPLSLSVTPGQPASISCRSSQSLEYSDGYTYLEWYLQKPGQSPQLLIYEVSNRFSGVPDRFSGSGSGTDFTLKISRVEAEDVGVYYCFQATHNPYTFGQGTKLEIKR",binding result,[2],binds
"Tau-binding antibody having the light chain of SEQ ID No.: 14 and the heavy chain of SEQ ID No.:18 (antibody, human IgG4 S228P, kappa, V domains shown) VH: EVQLQESGPGLVKPSETLSLTCTVSGFSLTSNDIAWIRQPPGKGLEWMGTIWTDGSTNYNTAVQSRVTISVDTSKNQFSLKLSSVTAADTAVYYCARHRLYYGAFDYWGQGTMVTVSS VL: DIVMTQTPLSLSVTPGQPASISCRSSQSLEYSDGYTYLEWYLQKPGQSPQLLIYEVSNRFSGVPDRFSGSGSGTDFTLKISRVEAEDVGVYYCFQATHNPYTFGQGTKLEIKR",IC50 (cellular Tau aggregation assay),[1],12 nM
same,"Imax (maximal efficacy at 300 nM, cellular Tau aggregation assay)",[1],98%
same,IC50 (cellular Tau aggregation assay),[3],42 nM
same,"Imax (maximal efficacy at 300 nM, cellular Tau aggregation assay)",[3],100%
same,IC50 (cellular Tau aggregation assay),[4],1 nM
same,"Imax (maximal efficacy at 300 nM, cellular Tau aggregation assay)",[4],99%
"AB1 having a rat VL of SEQ ID NO: 7 and a rat VH of SEQ ID NO.:8 (antibody, IgG1, V domains shown) VH: EVKLEESGPGLMQPSETLSLTCTVSGFSLTSNDIAWVRQPLGKGLVWMGTIWTDGSTNYNSAVQSRLSISRDTSKSQFFLKMNSLQPEDTGTYYCARHRLYYGAFDYWGQGTMVTVS VL: DIVMTQTPVSLSVTLGDQASISCRSSQSLEYSDGYTYLEWYLQKPGQSPQLLIYEVSNRFSGVPDRFIGSGSGTDFTLKISRVEPEDLGVYYCFQATHNPYTFGAGTKLEIK",IC50 (cellular Tau aggregation assay),[1],4 nM
same,"Imax (maximal efficacy at 300 nM, cellular Tau aggregation assay)",[1],98%
same,IC50 (cellular Tau aggregation assay),[4],3 nM
same,"Imax (maximal efficacy at 300 nM, cellular Tau aggregation assay)",[4],97%
same,IC50 (cellular Tau aggregation assay),[5],30 nM
same,"Imax (maximal efficacy at 300 nM, cellular Tau aggregation assay)",[5],89%
"mFab AB1 having a rat VL of SEQ ID No.: 7 and a rat VH of SEQ ID No.: 8 (Fab, V domains shown, also called AB1 Fab; anti-Tau mFab) VH: EVKLEESGPGLMQPSETLSLTCTVSGFSLTSNDIAWVRQPLGKGLVWMGTIWTDGSTNYNSAVQSRLSISRDTSKSQFFLKMNSLQPEDTGTYYCARHRLYYGAFDYWGQGTMVTVS VL: DIVMTQTPVSLSVTLGDQASISCRSSQSLEYSDGYTYLEWYLQKPGQSPQLLIYEVSNRFSGVPDRFIGSGSGTDFTLKISRVEPEDLGVYYCFQATHNPYTFGAGTKLEIK",Kd,[6],160 nM
same,koff,[6],0.011 s⁻¹
same,kon,[6],69000 M⁻¹ s⁻¹ and 73000 M⁻¹ s⁻¹
same,Kd,[7],160 nM and 170 nM
same,koff,[7],0.011 s⁻¹
same,kon,[7],70000 M⁻¹ s⁻¹ and 66000 M⁻¹ s⁻¹
same,Kd,[8],190 nM and 180 nM
same,koff,[8],0.0096 s⁻¹ and 0.008 s⁻¹
same,kon,[8],52000 M⁻¹ s⁻¹ and 44000 M⁻¹ s⁻¹

# From US20210115121A1 (UCB, published 2021)
